In this experiment the target is T1, rProtein A Sepharose FF (Staphylococcus aureus, UniProt P38507 37-327, immobilized on Sepharose FF chromatography resin (commercial, GE Healthcare)).
T1 construct: all other ligands (L1-L78, A2P, MEP Hypercel) are small molecules; also called rProtA; rProtein A Sepharose 4 FF
The experiment is described as follows: batch adsorption in 96-well plates, Langmuir isotherm fit, Bradford assay of supernatant.

By Kd is commonly meant a measure of binding affinity in units of concentration. Low readings indicate higher affinity, high ones lower affinity.

B1: Bevacizumab (Avastin, F. Hoffmann-La Roche, Switzerland) (antibody, V domains shown)
VH: EVQLVESGGGLVQPGGSLRLSCAASGYTFTNYGMNWVRQAPGKGLEWVGWINTYTGEPTYAADFKRRFTFSLDTSKSTAYLQMNSLRAEDTAVYYCAKYPHYYGSSHWYFDVWGQGTLVTVSS
VL: DIQMTQSPSSLSASVGDRVTITCSASQDISNYLNWYQQKPGKAPKVLIYFTSSLHSGVPSRFSGSGSGTDFTLTISSLQPEDFATYYCQQYSTVPWTFGQGTKVEIK
Molecule B1 showed a Kd of 4.7 mg/L.

These data come from patent US20170152288A1 (published 2017).
